Among the data in patent US20200087363A1 (IMMATICS BIOTECHNOLOGIES, published 2020) are peptide exchange yield values, retold here.

B1: EEMPEEIHL (peptide)
peptide: EEMPEEIHL
B2: EMPGGPVW (peptide)
peptide: EMPGGPVW
B3: AETEPERHLG (peptide)
peptide: AETEPERHLG
B4: TEDARHPESW (peptide)
peptide: TEDARHPESW
B5: VEEERYTGQW (peptide)
peptide: VEEERYTGQW
B6: EKGLISAF (peptide)
peptide: EKGLISAF
B7: EEAMKRLSY (peptide)
peptide: EEAMKRLSY
B8: KESDAGRYY (peptide)
peptide: KESDAGRYY
B9: KESDAGKYY (peptide)
peptide: KESDAGKYY
B10: VEVKYEGHW (peptide)
peptide: VEVKYEGHW
B11: RESHLTEIRQY (peptide)
peptide: RESHLTEIRQY
B12: SQDVAGTTF (peptide)
peptide: SQDVAGTTF
B13: TELTEARVQVW (peptide)
peptide: TELTEARVQVW
B14: MEAELVRRI (peptide)
peptide: MEAELVRRI
B15: QEIDQKRLEF (peptide)
peptide: QEIDQKRLEF
B16: GESSEVKAVL (peptide)
peptide: GESSEVKAVL
B17: HENLIEDF (peptide)
peptide: HENLIEDF
B18: LEVLHQGQW (peptide)
peptide: LEVLHQGQW
B19: DEDGKIVGY (peptide)
peptide: DEDGKIVGY
B20: QEPFTRPVL (peptide)
peptide: QEPFTRPVL
B21: AEANPRDLGASW (peptide)
peptide: AEANPRDLGASW
B22: IEAPKLMVV (peptide)
peptide: IEAPKLMVV
B23: KEVDPASNTYTL (peptide)
peptide: KEVDPASNTYTL
B24: NEAGEMIKHY (peptide)
peptide: NEAGEMIKHY
B25: VEVNGVPRW (peptide)
peptide: VEVNGVPRW
B26: IEIKDRLQL (peptide)
peptide: IEIKDRLQL
B27: EAYDIELNKW (peptide)
peptide: EAYDIELNKW
B28: YENIPVDKV (peptide)
peptide: YENIPVDKV
B29: VEAQDRETW (peptide)
peptide: VEAQDRETW
B30: HEIIIRSHW (peptide)
peptide: HEIIIRSHW
B31: IEIILLSGSL (peptide)
peptide: IEIILLSGSL
B32: QELFLHPVL (peptide)
peptide: QELFLHPVL
B33: AEDEDGKIVGY (peptide)
peptide: AEDEDGKIVGY
B34: AESFTSGRHYW (peptide)
peptide: AESFTSGRHYW
B35: TEHSGIYSC (peptide)
peptide: TEHSGIYSC
B36: SEVPVDSHY (peptide)
peptide: SEVPVDSHY
B37: MEELRMLSF (peptide)
peptide: MEELRMLSF
B38: SEKWFRMGF (peptide)
peptide: SEKWFRMGF
B39: REYQEVMNSKL (peptide)
peptide: REYQEVMNSKL
B40: KEAPNIVTL (peptide)
peptide: KEAPNIVTL
B41: NENLDYAIL (peptide)
peptide: NENLDYAIL
B42: RMLSFQQMTW (peptide)
peptide: RMLSFQQMTW
B43: SEIYQPRGF (peptide)
peptide: SEIYQPRGF
B44: NESDRLVYF (peptide)
peptide: NESDRLVYF
B45: IEAYLERIGY (peptide)
peptide: IEAYLERIGY
B46: MEFKTLNKN (peptide)
peptide: MEFKTLNKN
B47: TELQIPSF (peptide)
peptide: TELQIPSF
B48: SEVFHVSEA (peptide)
peptide: SEVFHVSEA
B49: KEVDPTGHSF (peptide)
peptide: KEVDPTGHSF
B50: AEIATTGQLY (peptide)
peptide: AEIATTGQLY
B51: DEINHQSL (peptide)
peptide: DEINHQSL
B52: AESDFSNNML (peptide)
peptide: AESDFSNNML
B53: SEVPVDSHYY (peptide)
peptide: SEVPVDSHYY
B54: AEIEADRSYQH (peptide)
peptide: AEIEADRSYQH
B55: QEIDRGQYI (peptide)
peptide: QEIDRGQYI
B56: EEQDFINNRY (peptide)
peptide: EEQDFINNRY
B57: EELRMLSF (peptide)
peptide: EELRMLSF
B58: EEIEAHIAL (peptide)
peptide: EEIEAHIAL
B59: VTEGAVEVKY (peptide)
peptide: VTEGAVEVKY
B60: GESVSWHLF (peptide)
peptide: GESVSWHLF
B61: EVEVGEVKSW (peptide)
peptide: EVEVGEVKSW
B62: SEASQSPQY (peptide)
peptide: SEASQSPQY
B63: RYFDENIQKFIW (peptide)
peptide: RYFDENIQKFIW
B64: EEVQDGKVI (peptide)
peptide: EEVQDGKVI

The test concerns the target T1, HLA-B*44:05 (human).
T1 construct: also called peptide-receptive MHC class I molecule
The test can be described thus: UV peptide exchange, anti-b2m ELISA. Here is the method:
Only peptide candidates that can effectively bind and stabilize the peptide-receptive MHC molecules prevent dissociation of the MHC complexes. To determine the yield of the exchange reaction, an ELISA was performed based on the detection of the light chain (β2m) of stabilized MHC complexes. The assay was performed as generally described in Rodenko et al. (Rodenko et al., 2006)
96 well MAXISorp plates (NUNC) were coated over night with 2 ug/ml streptavidin in PBS at room temperature, washed 4× and blocked for 1 h at 37° C. in 2% BSA containing blocking buffer. […] Peptide-MHC monomers of the UV-exchange reaction were diluted 100-fold in blocking buffer. Samples were incubated for 1 h at 37° C., washed four times, incubated with 2 ug/ml HRP conjugated anti-β2m for 1 h at 37° C., washed again and detected with TMB solution that is stopped with […]. Absorption was measured at 450 nm.
For orientation: ELISA stands for enzyme-linked immunosorbent assay.
For B1, the peptide exchange yield lay within 50 to 75%.
B2 came in with a peptide exchange yield of 50 to 75%.
In the case of B3 it was 20 to 50%; in that of B4, more than 75%.
B5 returned a peptide exchange yield of 50 to 75%.
In turn, B6 came in with a peptide exchange yield of 20 to 50%.
The figure for B7 is 20 to 50%; for B8 it is 50 to 75%.
For B9, the peptide exchange yield fell in the range of 50 to 75%.
Take B10: the peptide exchange yield was more than 75%.
In the case of B11 it was 20 to 50%; in that of B12, 20 to 50%.
The figure for B13 is 50 to 75%; for B14 it is 50 to 75%; for B15 it is 20 to 50%.
The figure for B16 is 50 to 75%; for B17 it is 50 to 75%.
B18 had a peptide exchange yield of 50 to 75%.
The figure for B19 is 20 to 50%; for B20 it is 50 to 75%; for B21 it is 50 to 75%.
Consider B22, for which the peptide exchange yield was in the range of 10 to 20%.
In the case of B23 it was 20 to 50%; in that of B24, 20 to 50%; in that of B25, more than 75%.
With B26, the peptide exchange yield fell in the range of 50 to 75%.
The figure for B27 is 50 to 75%; for B28 it is 50 to 75%; for B29 it is 20 to 50%.
The figure for B30 is 50 to 75%.
In the case of B31 it was more than 75%; in that of B32, more than 75%; in that of B33, 20 to 50%.
In turn, B34 registered a peptide exchange yield of more than 75%.
The figure for B35 is 20 to 50%; for B36 it is 50 to 75%.
B37: the peptide exchange yield is 50 to 75%.
The figure for B38 is 50 to 75%; for B39 it is 50 to 75%; for B40 it is more than 75%.
In the case of B41 it was more than 75%.
On to B42, for which the peptide exchange yield fell in the range of 20 to 50%.
The figure for B43 is 50 to 75%; for B44 it is 50 to 75%.
In the case of B45 it was 50 to 75%; in that of B46, 20 to 50%.
The figure for B47 is 20 to 50%.
For B48, the peptide exchange yield was 20 to 50%.
The figure for B49 is 50 to 75%; for B50 it is 50 to 75%; for B51 it is 20 to 50%.
The figure for B52 is 50 to 75%.
The figure for B53 is 50 to 75%; for B54 it is 50 to 75%; for B55 it is more than 75%.
B56 yielded a peptide exchange yield of more than 75%.
Take B57: the peptide exchange yield is 20 to 50%.
Consider B58, for which the peptide exchange yield lay in the range of 50 to 75%.
In the case of B59 it was 10 to 20%.
In turn, B60 had a peptide exchange yield of 50 to 75%.
As to B61, the peptide exchange yield lay within 10 to 20%.
B62 had a peptide exchange yield of 50 to 75%.
The figure for B63 is 50 to 75%; for B64 it is 20 to 50%.
